A word on the logP: it is the decadic logarithm of the partition coefficient of the neutral form, usually between octanol and water. Low readings indicate a more hydrophilic compound, high ones a more lipophilic compound. One may read the fraction remaining as what is left of the initial amount, in per cent. A lower fraction remaining goes with a greater loss.

This is an account of results in US20140178293A1, “METHODS FOR IMAGING BONE PRECURSOR CELLS USING DUAL-LABELED IMAGING AGENTS TO DETECT MMP-9 POSITIVE CELLS” (BAYLOR COLLEGE OF MEDICINE, priority 2011, published 2014).

No end group written: not given here. Some results are limits rather than exact numbers.

Data set [1] is described as follows: characterization of fluorescent properties. The class given is physicochemical. On the procedure:
Fluorescence intensity of the fluorophores was determined using the Fluorolog Tau-3 Spectrofluorometer (Horiba Jobin Yvon, Edison, N.J.) with excitation from a xenon arc lamp and absorbance was recorded using the DU-800 Spectrophotometer (Beckman Coulter, Brea Calif.). Fluorescence excitation and emission spectra were obtained at wavelengths of 785 and 830 nm respectively, with an integration time of 0.3 seconds for 1 μM solutions of IRDye 800CW, M2 and ^68Ga-M2 (n=4). Fluorescence measurements for IRDye 800CW and M2 were performed in aqueous solution under ambient conditions, whereas ^68Ga-M2 was prepared as previously described in NaOAc (pH 4) to provide an accurate representation of the ^68Ga-labeling scheme. Extinction coefficients were determined from the slope of absorbance at 785 nm as a function of the concentration of serial dilutions of each agent. Fluorescence quantum yield was determined by the comparative method of Williams et al. (Williams et al., 1983) using the quantum yield of ICGO (Φ=0.016) at 785/830 nm as a standard.

The format of data set [2] is physicochemical. On the procedure:
The lipophilicity of ^68Ga-M2 was assessed by determination of the water-octanol partition coefficient. 1-Octanol (1 mL) was added to a solution of approximately 25 μCi of ^68Ga-M2 in water (1 mL) and the layers were vigorously mixed for 5 min at room temperature. The tubes were centrifuged at 14,000 rpm for 2-3 min. Three samples of 100 μL of each layer were taken in pre-weighed vials, re-weighed, and counted in a […] (Wizard-2, Perkin Elmer). The partition coefficient was determined by calculating the ratio of counts per minute (cpm) in weight (g) of octanol/cpm in weight (g) of water and expressed as log P. At least three independent experiments were performed in triplicate to give the log P as the mean value±standard deviation (SD).

Data set [3] has as its target T1, MMP-9 (Mus musculus, UniProt P41245). The arrangement: injected intramuscularly into each hind limb quadriceps muscle of nonobese diabetic/severely compromised immunodeficient (NOD/SCID) mice; from tissue; host or cells: hind limb muscle of living NOD/SCID mice injected with AdBMP2- or Adempty-transduced human fibroblasts. To be noted: in vivo, iv. On the procedure:
(§1) A murine model of BMP-2 induced HO was used as previously described (Rodenberg et al., 2010). […] Control transduced cells were injected into the contralateral limb.
The anesthetized mice were injected intravenously with ^68Ga-M2 (200 μCi, 6 nmol) and μPET/CT images were acquired 1 h post-injection. To visualize the formation of ectopic bone, CT imaging was performed on days 4 and 11 post-implantation

Data set [4] deals with T1, MMP-9. Briefly: NIRF imaging of ^68Ga-M2 in murine model of BMP-2 induced HO. It counts as in vivo. The arrangement: injected intramuscularly into each hind limb quadriceps muscle of nonobese diabetic/severely compromised immunodeficient (NOD/SCID) mice; from tissue; host or cells: hind limb muscle of living NOD/SCID mice injected with AdBMP2- or Adempty-transduced human fibroblasts. To be noted: day 4 after implantation, 18 hr after i.v. administration. On the procedure:
as §1
Based on the findings from the ex vivo analysis, mice were imaged on day 4 post-implantation with NIRF imaging to assess localization and in vivo fluorescence of M2 following ^68Ga-labeling. […] NIR fluorescence images were acquired 18 hr after intravenous administration of ^68Ga-M2 using a custom-built fluorescence imaging systems previously described Houston et al., 2005). Briefly, a field of view was illuminated with 785 nm of light from a laser diode, outfitted with a convex lens and diffuser to create a uniform excitation field. The fluorescence was collected through holographic and interference filters placed before a Nikon camera lens. The images were finally captured by an electron-multiplying charge-coupled device camera (PhotonMax 512; Princeton Instruments, Princeton, N.J.) with 200 to 400 milliseconds of integration time. For acquisition of white-light images, the optical filters were removed, and a low-power lamp illuminated the subject. Image acquisition was accomplished by V++ software (Auckland, New Zealand).

The nature of data set [5]: radiochemical stability of ^68Ga-M2 in PBS or DTPA challenge (radio-HPLC). The class given is physicochemical. The note with it: room temperature, 3 h incubation. On the procedure: (§2) The chemical, radiochemical and optical stability of radioactive and non-radioactive M2 were examined using a series of in vitro stability studies. M2 was incubated in PBS and water at room temperature and 4° C. for 14 days, followed by HPLC analysis of peptide and fluorescent stability. To assess radiochemical stability, ^68Ga-M2 was added to a solution of PBS or DTPA (500-fold excess), kept at room temperature for 1, 2 and 3 h, and analyzed by radio-HPLC. To evaluate serum stability, 150 μl of ^68Ga-M2 was added to 50% mouse serum and incubated at 37° C. An 80 μl aliquot was taken at each of the above-mentioned time points and added to 160 μl ice-cold acetonitrile. The samples were centrifuged at 14,000 rpm for 5 min and the supernatant was collected, filtered and analyzed by radio-HPLC.

The nature of a further data set: in vitro. The class given is in vitro ADME. To be noted: mouse, serum. On the procedure:
as §2

The conditions of data set [6]: in vivo; Kuhnast et al., 2004; Sprague et al., 2006; cited from earlier work.
A further data set relates to MMP-2/9. The note with it: Koivunen et al., 1999; cited from earlier work.
The mark [7] stands for this setting: 1 μM solutions, IRDye 800CW and M2 aqueous, ^68Ga-M2 in NaOAc pH 4.

T1 sequence (P41245 108-730): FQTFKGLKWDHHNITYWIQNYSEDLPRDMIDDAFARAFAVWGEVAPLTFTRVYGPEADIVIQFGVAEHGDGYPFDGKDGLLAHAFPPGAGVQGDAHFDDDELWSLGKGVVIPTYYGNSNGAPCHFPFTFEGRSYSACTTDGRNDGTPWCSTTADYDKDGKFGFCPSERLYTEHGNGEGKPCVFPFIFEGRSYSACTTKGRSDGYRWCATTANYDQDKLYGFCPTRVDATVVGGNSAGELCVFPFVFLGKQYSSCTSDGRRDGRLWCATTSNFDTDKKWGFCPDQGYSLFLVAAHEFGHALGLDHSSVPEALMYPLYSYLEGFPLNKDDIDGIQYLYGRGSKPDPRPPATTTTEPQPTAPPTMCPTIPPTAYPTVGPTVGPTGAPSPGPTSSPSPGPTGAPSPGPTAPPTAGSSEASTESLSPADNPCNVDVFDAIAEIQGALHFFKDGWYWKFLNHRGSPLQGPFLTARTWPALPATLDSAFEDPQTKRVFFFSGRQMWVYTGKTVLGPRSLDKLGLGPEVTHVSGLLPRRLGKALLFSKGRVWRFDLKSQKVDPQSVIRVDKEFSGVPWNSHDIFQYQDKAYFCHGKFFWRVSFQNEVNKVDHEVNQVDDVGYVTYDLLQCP

Take `CC(C)C[C@@H]1NC(=O)[C@H]([C@@H](C)O)NC(=O)[C@H](Cc2ccccc2)NC(=O)CNC(=O)[C@H](Cc2c[nH]c3ccccc23)NC(=O)[C@H](Cc2c[nH]cn2)NC(=O)[C@H](C)NC(=O)[C@@H](NC(=O)[C@H](CCCCNC(=O)CCCCC[N+]2=C(C=CC3=C(Oc4ccc(S(=O)(=O)O)cc4)C(=CC=C4N(CCCCS(=O)(=O)O)c5ccc(S(=O)(=O)O)cc5C4(C)C)CCC3)C(C)(C)c3cc(S(=O)(=O)[O-])ccc32)NC(=O)CN2CCN(CC(=O)O)CCN(CC(=O)O)CCN(CC(=O)O)CC2)CCCCNC(=O)C[C@@H](C(=O)O)NC1=O` (single isomer, unassigned) [^68Ga-M2, metal not drawn]: in data set [1] (setting [7]), the Emission maximum is reported as 830 nm and the Excitation wavelength came out at 785 nm. Further, in data set [1] (785/830 nm, relative to ICG (Φ=0.016)), the Quantum yield came out at 0.031. Further, in data set [1] (absorbance at 785 nm, serial dilutions, mean ± SD (n=4)), the Extinction coefficient is reported as 108,069±7,918 M^−1cm^−1. Besides, the absorbance maximum in data set [1] (optical spectrum) amounted to 785 nm. In data set [2], this compound yielded a logP of -2.09 ± 0.02. In addition, the clearance from circulation entry with MMP-9 [3] is “rapidly cleared from circulation via the kidneys”. The “localization of agent by NIR fluorescence” value at MMP-9 [4] is given as “observed in the tissue region with BMP-2 producing cells”. Besides, the radiochemical purity in data set [5] (DTPA (500-fold excess)) is above 95%. Also, the radiochemical purity in data set [5] (PBS) was above 95%. The share remaining at 3 h in “in vitro” is above 95%.
Regarding “c(CTTHWGFTLC) (also: cyclic, c(...), ring type and places not given here)”, in data set [6], the “susceptibility to non-specific degradation” value was “highly susceptible to non-specific degradation”. In the data set with MMP-2/9, the “inhibitory activity against MMP-2/9” value is on record as “potent inhibitory activity”.
